Experimental findings from US20080286284A1 are described below.

Several values for one entry are separate records, joined by “and”; a condition that tells them apart may be missing. Identical values can stand only once.

For assay [1], the target named is recombinant soluble PSMA (rsPSMA) (human) (UniProt Q04609). The experiment in a line: Biacore, rsPSMA.
The target of assay [2] is prostate specific membrane antigen (PSMA), full-length human (human) (UniProt Q04609). The experiment in a line: average over PSMA-expressing cells.
The target is the same in assay [3]. Briefly: fraction of radiolabeled mAb bound, PSMA-3T3 cells.
The target is the same in assay [4]. The experiment in a line: cell-based or functional assay.

prostate specific membrane antigen (PSMA), full-length human (human), sequence (Q04609 whole entry): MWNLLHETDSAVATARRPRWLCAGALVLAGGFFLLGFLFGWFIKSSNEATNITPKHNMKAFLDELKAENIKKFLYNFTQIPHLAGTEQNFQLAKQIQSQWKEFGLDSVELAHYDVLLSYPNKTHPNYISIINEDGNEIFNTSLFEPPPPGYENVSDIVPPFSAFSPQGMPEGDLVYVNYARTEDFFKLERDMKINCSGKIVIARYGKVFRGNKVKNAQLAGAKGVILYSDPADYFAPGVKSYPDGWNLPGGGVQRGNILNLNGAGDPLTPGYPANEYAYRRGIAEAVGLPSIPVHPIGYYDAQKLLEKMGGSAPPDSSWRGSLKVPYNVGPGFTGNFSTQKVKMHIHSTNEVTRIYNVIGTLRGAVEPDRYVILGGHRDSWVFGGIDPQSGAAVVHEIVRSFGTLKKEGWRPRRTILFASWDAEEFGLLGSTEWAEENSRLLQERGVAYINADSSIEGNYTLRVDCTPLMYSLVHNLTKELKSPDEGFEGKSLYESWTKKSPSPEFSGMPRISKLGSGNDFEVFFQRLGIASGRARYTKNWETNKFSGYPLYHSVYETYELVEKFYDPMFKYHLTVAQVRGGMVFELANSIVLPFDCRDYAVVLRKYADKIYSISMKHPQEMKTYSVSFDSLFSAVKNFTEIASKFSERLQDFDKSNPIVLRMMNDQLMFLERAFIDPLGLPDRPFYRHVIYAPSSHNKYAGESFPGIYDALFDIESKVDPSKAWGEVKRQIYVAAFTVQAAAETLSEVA
recombinant soluble PSMA (rsPSMA) (human), sequence (Q04609 44-750): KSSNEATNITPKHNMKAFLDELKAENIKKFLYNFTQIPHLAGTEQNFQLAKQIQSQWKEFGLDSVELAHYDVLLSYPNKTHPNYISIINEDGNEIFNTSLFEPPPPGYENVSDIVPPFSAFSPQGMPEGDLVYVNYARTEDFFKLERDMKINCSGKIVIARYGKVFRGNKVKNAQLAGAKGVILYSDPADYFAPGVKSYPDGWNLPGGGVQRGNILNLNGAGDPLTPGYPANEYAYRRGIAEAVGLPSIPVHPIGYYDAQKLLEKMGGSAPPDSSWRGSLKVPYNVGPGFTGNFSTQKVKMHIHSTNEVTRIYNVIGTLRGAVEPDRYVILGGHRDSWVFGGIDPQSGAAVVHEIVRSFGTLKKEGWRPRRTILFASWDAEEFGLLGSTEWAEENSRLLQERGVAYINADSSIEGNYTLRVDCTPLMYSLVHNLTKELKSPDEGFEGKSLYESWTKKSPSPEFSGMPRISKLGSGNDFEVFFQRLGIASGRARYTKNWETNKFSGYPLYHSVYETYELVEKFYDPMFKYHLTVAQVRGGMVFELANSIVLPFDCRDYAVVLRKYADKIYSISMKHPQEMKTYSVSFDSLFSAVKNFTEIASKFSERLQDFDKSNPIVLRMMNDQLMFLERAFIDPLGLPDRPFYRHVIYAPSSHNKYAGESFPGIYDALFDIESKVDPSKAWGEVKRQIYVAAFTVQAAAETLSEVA

In general, Kd refers to the equilibrium constant for the complex coming apart. Turning to Control (Table 6, Biacore) (antibody), the Kd in assay [1] amounted to 0.634 nM. As for “^111In radiolabeled CHX-A″-DTPA mJ591 (antibody)”, the Immunoreactivity (%) in assay [2] is 56.7%; in assay [3], 58.5% and 54.9%. In assay [4], mAb J591 (murine) (antibody) gave an LD50, immunotoxin cytotoxicity (Mab-Zap saporin secondary) on C4-2 cells of 88.2 pM and an LD50, immunotoxin cytotoxicity (Mab-Zap saporin secondary) on PSMA-3T3 cells of 89 pM.
